The test addresses T1, SV40 large T-antigen (SV40, UniProt P03070 87-708).
T1 construct: Control partner in the yeast-two-hybrid assay; fusion construct not described
In words: targeted yeast-two-hybrid, negative control.

T1 sequence (P03070 87-708 limits assumed): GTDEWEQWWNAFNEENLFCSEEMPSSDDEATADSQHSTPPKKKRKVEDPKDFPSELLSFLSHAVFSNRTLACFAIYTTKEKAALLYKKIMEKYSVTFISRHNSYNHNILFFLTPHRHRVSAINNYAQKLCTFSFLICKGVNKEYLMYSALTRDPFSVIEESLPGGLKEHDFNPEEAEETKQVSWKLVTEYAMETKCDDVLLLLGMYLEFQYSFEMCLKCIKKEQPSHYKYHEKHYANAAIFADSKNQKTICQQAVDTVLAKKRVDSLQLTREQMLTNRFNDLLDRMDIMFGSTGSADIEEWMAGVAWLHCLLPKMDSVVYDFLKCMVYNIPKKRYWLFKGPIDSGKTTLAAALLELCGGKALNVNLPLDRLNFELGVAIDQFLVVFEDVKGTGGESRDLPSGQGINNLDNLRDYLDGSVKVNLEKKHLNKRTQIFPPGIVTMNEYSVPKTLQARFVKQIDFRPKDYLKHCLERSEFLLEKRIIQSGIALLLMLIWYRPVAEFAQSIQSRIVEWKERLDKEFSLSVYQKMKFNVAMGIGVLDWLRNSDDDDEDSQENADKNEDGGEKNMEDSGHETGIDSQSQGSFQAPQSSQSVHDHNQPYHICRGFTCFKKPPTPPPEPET

B1: human Lamin C (other)
chain: SEEVVSREVSGIKAAYEAELGDARKTLDSVAKERARLQLELSKVREEFKELKARNTKKEGDLIAAQARLKDLEALLNSKEAALSTALSEKRTLEGELHDLRGQVAKLEAALGEAKKQLQDEMLRRVDAENRLQTMKEELDFQKNIYSEELRETKRRHETRLVEID
notes: Negative-control partner in the yeast-two-hybrid assay; fusion construct not described
Turning to B1, the binding result is “no binding”.

These data come from patent US20060223099A1 (BAYLOR COLLEGE OF MEDICINE, published 2006).
